Changes are numbered by the printed parent chain.

What all share (details): protein: recombinant; tags: His6-MBP removed by TEV; label: 32P or 6-FAM for cleavage; tCo (position not in material) for unwinding; guide RNA (S25+S26 joined) / target strand / non-target strand; DNA duplex blunt
For data set [1], the target named is T1, SpCas9 (Streptococcus pyogenes, UniProt Q99ZW2 1-1368). Kind of data set: stopped-flow and cleavage kinetics, global fit; 1/K1, initial binding step; bracketed value, footnote 3 not in material, may be fixed or from earlier work; Reaction buffer, salt, pH and temperature not in the material; Mg2+ added to start cleavage, omitted for pre-equilibration.
T1 sequence (Q99ZW2 whole entry): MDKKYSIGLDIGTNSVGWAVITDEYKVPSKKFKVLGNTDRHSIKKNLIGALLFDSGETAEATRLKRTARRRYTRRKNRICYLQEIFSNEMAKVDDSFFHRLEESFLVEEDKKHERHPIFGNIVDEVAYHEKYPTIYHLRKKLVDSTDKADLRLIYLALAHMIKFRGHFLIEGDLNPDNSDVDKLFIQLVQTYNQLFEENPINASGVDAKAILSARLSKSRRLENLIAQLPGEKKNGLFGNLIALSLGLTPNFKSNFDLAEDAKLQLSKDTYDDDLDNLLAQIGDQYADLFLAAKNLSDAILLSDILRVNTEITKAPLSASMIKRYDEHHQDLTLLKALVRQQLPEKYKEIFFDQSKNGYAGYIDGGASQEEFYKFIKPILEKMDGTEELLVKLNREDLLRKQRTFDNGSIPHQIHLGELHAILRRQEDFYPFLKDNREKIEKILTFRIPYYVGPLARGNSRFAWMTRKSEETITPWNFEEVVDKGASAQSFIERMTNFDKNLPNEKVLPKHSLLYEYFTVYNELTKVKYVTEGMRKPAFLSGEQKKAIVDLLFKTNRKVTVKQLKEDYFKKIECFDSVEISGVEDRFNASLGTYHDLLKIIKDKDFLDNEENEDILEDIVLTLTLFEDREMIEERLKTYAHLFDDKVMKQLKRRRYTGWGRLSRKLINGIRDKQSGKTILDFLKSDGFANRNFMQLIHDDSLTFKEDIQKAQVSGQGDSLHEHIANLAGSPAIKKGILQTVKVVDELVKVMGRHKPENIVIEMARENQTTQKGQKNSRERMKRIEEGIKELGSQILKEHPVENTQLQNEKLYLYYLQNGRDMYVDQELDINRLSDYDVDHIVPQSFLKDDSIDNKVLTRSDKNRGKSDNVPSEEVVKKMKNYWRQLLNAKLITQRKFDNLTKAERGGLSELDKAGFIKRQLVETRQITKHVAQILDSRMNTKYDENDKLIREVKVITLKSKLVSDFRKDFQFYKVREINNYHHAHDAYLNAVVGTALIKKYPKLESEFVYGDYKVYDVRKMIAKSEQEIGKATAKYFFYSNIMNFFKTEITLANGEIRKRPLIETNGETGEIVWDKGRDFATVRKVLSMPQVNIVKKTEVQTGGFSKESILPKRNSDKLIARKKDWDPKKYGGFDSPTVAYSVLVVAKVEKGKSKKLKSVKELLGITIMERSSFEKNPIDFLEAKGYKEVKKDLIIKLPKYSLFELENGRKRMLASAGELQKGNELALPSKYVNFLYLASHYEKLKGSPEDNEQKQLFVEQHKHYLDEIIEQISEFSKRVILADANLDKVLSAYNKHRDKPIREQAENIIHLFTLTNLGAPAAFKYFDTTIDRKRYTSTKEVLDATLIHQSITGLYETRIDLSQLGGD
Data set [2] has as its target T1, SpCas9. Put plainly: stopped-flow and cleavage kinetics, global fit; Kd,net including R-loop formation; bracketed value, footnote 3 not in material, may be fixed or from earlier work; Reaction buffer, salt, pH and temperature not in the material; Mg2+ added to start cleavage, omitted for pre-equilibration.
In data set [3] the target is T1, SpCas9. Put plainly: stopped-flow and cleavage kinetics, global fit; Kd,net including R-loop formation; Reaction buffer, salt, pH and temperature not in the material; Mg2+ added to start cleavage, omitted for pre-equilibration.
Data set [4] deals with T1, SpCas9. Put plainly: stopped-flow and cleavage kinetics, global fit; 1/K1, initial binding step; Reaction buffer, salt, pH and temperature not in the material; Mg2+ added to start cleavage, omitted for pre-equilibration.

B1: sgRNA + on-target 55-bp DNA (mixed)
RNA: GACGCAUAAAGAUGAGACGCGUUUUAGAGCUAUGCUGUUUUGGAAACAAAACAGCAUAGCAAGUUAAAAUAAGGCUAGUCCGUUAUCAACUUGAAAAAGUGGCACCGAGUCGGUGCUUUUUUUGGAUC
DNA 1: AGCTGACGTTTGTACTCCAGCGTCTCATCTTTATGCGTCAGCAGAGATTTCTGCT
DNA 2: AGCAGAAATCTCTGCTGACGCATAAAGATGAGACGCTGGAGTACAAACGTCAGCT
Take B1: the dissociation constant (Kd) stood at 3 nM in the data set with SpCas9 [1] and 1 nM in the data set with SpCas9 [2].

B2: sgRNA + off-target 55-bp DNA (3-bp PAM-distal mismatch) (mixed)
RNA: B1 RNA
DNA 1: B1 DNA 1 with G37C, T38A, C39G
DNA 2: B1 DNA 2 with G17C, A18T, C19G
Regarding B2, the equilibrium dissociation constant (Kd) came to 8.1 nM in the data set with SpCas9 [3] and 24 nM with SpCas9 [4].

In general, Kd refers to a measure of binding affinity in units of concentration.

These data come from paper PMC7367838, “Engineered CRISPR/Cas9 enzymes improve discrimination by slowing DNA cleavage to allow release of off-target DNA”.
